Measurements as given in US20260116991A1.
Residue numbers refer to the chain shown, from its start.

B1: hAb003LH1L1 (antibody, human IgG1, V domains shown)
VH: EVQLVQSGAEVKKPGSSVKVSCKASGYTFSDYEMHWVRQAPGQGLEWMGTIDPETGNTAYTQKFMDRVTITADKSTSTAYMELSSLRSEDTAVYYCTRGYSFTYWGQGTLVTVSS
VL: DIVMTQTPLSLPVTPGEPASISCRSSQNIVHSNGNTYLQWYLQKPGQSPQLLIFKVSNRFSGVPDRFSGSGSGTDFTLKISRVEAEDVGVYYCFQGSHVPFTFGQGTKLEIK
B2: hAb007LH1L1b (antibody, human IgG1, V domains shown)
VH: B1 VH with T61N, M65K, D66G, G99P, F102L
VL: B1 VL with N28S, I29F, G34R, N35D, F54Y, F101Y
B3: hAb006LH1L1b (antibody, human IgG1, V domains shown)
VH: B1 VH with M34I, T50A, E54K, T61N, D66G, G99Y, Y100F, T103A
VL: B1 VL with N28T, I29F, G34A, F54Y, F101Y
B4: hAb006LH1L1a (antibody, human IgG1, V domains shown)
VH: B1 VH with M34I, T50A, E54K, T61N, D66G, G99Y, Y100F, T103A
VL: B1 VL with N28T, I29F, N33D, F54Y, F101Y
B5: hAb006LH2L1a (antibody, human IgG1, V domains shown)
VH: B1 VH with S30T, M34I, T50A, E54K, T61N, D66G, G99Y, Y100F, T103A
VL: B1 VL with N28T, I29F, N33D, F54Y, F101Y
B6: hAb003LH1L1a (antibody, human IgG1, V domains shown)
VH: B1 VH
VL: B1 VL with N33D
B7: hAb006LH2L1 (antibody, human IgG1, V domains shown)
VH: B1 VH with S30T, M34I, T50A, E54K, T61N, D66G, G99Y, Y100F, T103A
VL: B1 VL with N28T, I29F, F54Y, F101Y
B8: hAb007LH1L1 (antibody, human IgG1, V domains shown)
VH: B1 VH with T61N, M65K, D66G, G99P, F102L
VL: B1 VL with N28S, I29F, N35D, F54Y, F101Y
B9: hAb003LH1L1b (antibody, human IgG1, V domains shown)
VH: B1 VH
VL: B1 VL with G34R
B10: hAb007LH1L1a (antibody, human IgG1, V domains shown)
VH: B1 VH with T61N, M65K, D66G, G99P, F102L
VL: B1 VL with N28S, I29F, N33D, N35D, F54Y, F101Y
B11: hAb006LH2L1b (antibody, human IgG1, V domains shown)
VH: B1 VH with S30T, M34I, T50A, E54K, T61N, D66G, G99Y, Y100F, T103A
VL: B1 VL with N28T, I29F, G34A, F54Y, F101Y
B12: hAb006LH3L1a (antibody, human IgG1, V domains shown)
VH: B1 VH with S30T, M34I, T50A, E54K, T61N, D66G, I70L, G99Y, Y100F, T103A
VL: B1 VL with N28T, I29F, N33D, F54Y, F101Y
B13: hAb007LH3L1a (antibody, human IgG1, V domains shown)
VH: B1 VH with S30T, T61N, M65K, D66G, I70L, G99P, F102L
VL: B1 VL with N28S, I29F, N33D, N35D, F54Y, F101Y
B14: hAb007LH2L1a (antibody, human IgG1, V domains shown)
VH: B1 VH with S30T, T61N, M65K, D66G, G99P, F102L
VL: B1 VL with N28S, I29F, N33D, N35D, F54Y, F101Y
B15: hAb005LH2L1b (antibody, human IgG1, V domains shown)
VH: EVQLVQSGAEVKKPGASVKVSCKASGYTFTDYEMHWVRQAPGQGLEWMGAIDPETGNTAYIQKFKGRVTLTTDKSTSTAYMELRSLRSDDTAVYYCTRFYSYSHWGQGTTVTVSS
VL: DIVMTQTPLSLPVTPGEPASISCRSSQSLVHSNRNTYLHWYLQKPGQSPQLLIYKVSNRFSGVPDRFSGSGSGTDFTLKISRVEAEDVGVYYCSQNTHVPPTFGGGTKVEIK
B16: hAb001H1aL1a (antibody, human IgG1, V domains shown)
VH: EVQLVESGGGLVQPGGSLRLSCAASGFSFNTNAMNWVRQAPGKGLEWVGRIRSKSNNYATYYADSVKGRFTISRDDSKNSLYLQMNSLKTEDTAVYYCVRDGYYVLFAYWGQGTLVTVSS
VL: B1 VL with S25F, N28S, H31N, N33D, Q39E, Y41F, F54Y
B17: hAb001H1L1 (antibody, human IgG1, V domains shown)
VH: B16 VH with G68D
VL: B1 VL with S25F, N28S, H31N, Q39E, Y41F, F54Y
B18: hAb007LH1L1d (antibody, human IgG1, V domains shown)
VH: B1 VH with T61N, M65K, D66G, G99P, F102L
VL: B1 VL with N28S, I29F, G34S, N35D, F54Y, F101Y
B19: hAb006LH3L1d (antibody, human IgG1, V domains shown)
VH: B1 VH with S30T, M34I, T50A, E54K, T61N, D66G, I70L, G99Y, Y100F, T103A
VL: B1 VL with N28T, I29F, G34S, F54Y, F101Y
B20: hAb001H2L1 (antibody, human IgG1, V domains shown)
VH: B16 VH with G68D, N79S
VL: B1 VL with S25F, N28S, H31N, Q39E, Y41F, F54Y
B21: hAb001H2L1a (antibody, human IgG1, V domains shown)
VH: B16 VH with G68D, N79S
VL: B1 VL with S25F, N28S, H31N, N33D, Q39E, Y41F, F54Y
B22: hAb001H1L1a (antibody, human IgG1, V domains shown)
VH: B16 VH with G68D
VL: B1 VL with S25F, N28S, H31N, N33D, Q39E, Y41F, F54Y
B23: hAb007LH1L1e (antibody, human IgG1, V domains shown)
VH: B1 VH with T61N, M65K, D66G, G99P, F102L
VL: B1 VL with N28S, I29F, G34V, N35D, F54Y, F101Y
B24: hAb006LH3L1e (antibody, human IgG1, V domains shown)
VH: B1 VH with S30T, M34I, T50A, E54K, T61N, D66G, I70L, G99Y, Y100F, T103A
VL: B1 VL with N28T, I29F, G34V, F54Y, F101Y
B25: GC33 IgG (antibody, V domains shown)
VH: QVQLVQSGAEVKKPGASVKVSCKASGYTFTDYEMHWVRQAPGQGLEWMGALDPKTGDTAYSQKFKGRVTLTADKSTSTAYMELSSLTSEDTAVYYCTRFYSYTYWGQGTLVTVSS
VL: DVVMTQSPLSLPVTPGEPASISCRSSQSLVHSNRNTYLHWYLQKPGQSPQLLIYKVSNRFSGVPDRFSGSGSGTDFTLKISRVEAEDVGVYYCSQNTHVPPTFGQGTKLEIKR

What follows are binders tested against monkey GPC3-His protein (monkey) (assay: ELISA, monkey GPC3-His coated; antibody 0.53 nM).

Binder | OD450 nm
B1 | 2.65
B2 | 1.97
B3 | 2.49
B4 | 0.917
B5 | 0.549
B6 | 2.2
B7 | 2.38
B8 | 2.43
B9 | 2.46
B10 | 1.57
B11 | 2.57
B12 | 1.05
B13 | 1.08
B14 | 1.41
B15 | 1.25

What follows are binders tested against monkey GPC3-His protein (monkey) (assay: ELISA, monkey GPC3-His coated; antibody 0.11 nM).

Binder | OD450 nm
B1 | 2.31
B2 | 0.958
B3 | 2.13
B4 | 0.227
B5 | 0.137
B6 | 1.48
B7 | 2.01
B8 | 1.46
B9 | 2.18
B10 | 0.605
B11 | 2.1
B12 | 0.226
B13 | 0.337
B14 | 0.468
B15 | 1.17

These binders were tested against monkey GPC3-His protein (monkey) (assay: ELISA, monkey GPC3-His coated; antibody 13.33 nM).

Binder | OD450 nm
B1 | 2.62
B2 | 2.37
B3 | 2.5
B4 | 1.82
B5 | 1.84
B6 | 2.35
B7 | 2.23
B8 | 2.54
B9 | 2.64
B10 | 2.44
B11 | 2.46
B12 | 2.09
B13 | 2.37
B14 | 2.39
B15 | 1.24

The binders below were run against monkey GPC3 on HEK293T-monkey GPC3 cells (monkey) (assay: FACS on HEK293T-monkey GPC3 cells).

Binder | EC50 | Max MFI
B16 | 1.68 nM | 27200 MFI
B17 | 1.33 nM | 33500 MFI
B18 | 13.6 nM | 80400 MFI
B6 | 4.77 nM | 22600 MFI
B19 | 6.16 nM | 84800 MFI
B20 | 1.08 nM | 33300 MFI
B21 | 2.03 nM | 26900 MFI
B22 | 1.87 nM | 24900 MFI
B23 | 19.9 nM | 59700 MFI
B24 | 6.54 nM | 82900 MFI
B25 | 5.96 nM | 87000 MFI

These binders were tested against monkey GPC3-His protein (monkey) (assay: ELISA, monkey GPC3-His coated; antibody 0.004 nM).

Binder | OD450 nm
B1 | 0.467
B2 | 0.128
B3 | 0.309
B4 | 0.058
B5 | 0.055
B6 | 0.148
B7 | 0.358
B8 | 0.122
B9 | 0.418
B10 | 0.097
B11 | 0.34
B12 | 0.057
B13 | 0.079
B14 | 0.093
B15 | 0.232

These binders were tested against monkey GPC3-His protein (monkey) (assay: ELISA, monkey GPC3-His coated; antibody 0.02 nM).

Binder | OD450 nm
B1 | 1.34
B2 | 0.305
B3 | 0.877
B4 | 0.078
B5 | 0.065
B6 | 0.483
B7 | 1.06
B8 | 0.491
B9 | 1.22
B10 | 0.197
B11 | 0.924
B12 | 0.08
B13 | 0.135
B14 | 0.182
B15 | 0.687

These binders were tested against monkey GPC3-His protein (monkey) (assay: ELISA, monkey GPC3-His coated; antibody 0.0008 nM).

Binder | OD450 nm
B1 | 0.188
B2 | 0.071
B3 | 0.111
B4 | 0.05
B5 | 0.047
B6 | 0.087
B7 | 0.129
B8 | 0.085
B9 | 0.192
B10 | 0.067
B11 | 0.128
B12 | 0.044
B13 | 0.069
B14 | 0.065
B15 | 0.09

The binders below were run against monkey GPC3-His protein (monkey) (assay: ELISA, monkey GPC3-His coated; antibody 66.66 nM).

Binder | OD450 nm
B1 | 2.58
B2 | 2.54
B3 | 2.77
B4 | 2.08
B5 | 2.06
B6 | 2.42
B7 | 2.39
B8 | 2.56
B9 | 2.55
B10 | 2.36
B11 | 2.69
B12 | 2.18
B13 | 2.34
B14 | 2.45
B15 | 1.23

These binders were tested against monkey GPC3-His protein (monkey) (assay: ELISA, monkey GPC3-His coated; antibody 2.67 nM).

Binder | OD450 nm
B1 | 2.58
B2 | 2.39
B3 | 2.75
B4 | 1.63
B5 | 1.39
B6 | 2.29
B7 | 2.46
B8 | 2.6
B9 | 2.58
B10 | 2.21
B11 | 2.7
B12 | 1.95
B13 | 1.89
B14 | 2.1
B15 | 1.32
